The results in this text go back to a protein production outcome set (Wang et al. 2014).

The data set can be described thus: label from the status in PepcDB records.
For “MVKLIHTLADHGDDVNCCAFSFSLLATCSLDKTIRLYSLRDFTELPHSPLKFHTYAVHCCCFSPSGHILASCSTDGTTVLWNTENGQMLAVMEQPSGSPVRVCQFSPDSTCLASGAADGTVVLWNAQSYKLYRCGSVKDGSLAACAFSPNGSFFVTGSSCGDLTVWDDKMRCLHSEKAHDLGITCCDFSSQPVSDGEQGLQFFRLASCGQDCQVKIWIVSFTHILGFELKYKSTLSGHCAPVLACAFSHDGQMLVSGSVDKSVIVYDTNTENILHTLTQHTRYVTTCAFAPNTLLLATGSMDKTVNIWQFDLETLCQARSTEHQLKQFTEDWSEEDVSTWLCAQDLKDLVGIFKMNNIDGKELLNLTKESLADDLKIESLGLRSKVLRKIEELRTKVKSLSSGIPDEFICPITRELMKDPVIASDGYSYEKEAMENWISKKKRTSPMTNLVLPSAVLTPNRTLKMAINRWLETHQK”, the protein production result was “failed”.
For “MVKVELVYIANSKNCLHYKMDLKQGATVEEALIESNIYSTCPETRELPVGVYGKRVSVDQVLKEGDRIEIYRPLILDPKEKRRKLAQFKK” the value was “failed”.
For “MVKVLTACGNGMGSSMVIKMKVENALRQLGVSDIESASCSVGEAKGLASNYDIVVASNHLIHELDGRTNGKLIGLDNLMDDNEIKTKLEEALK” the value was “failed”; for “MVKVSIICTNYNKGSWIGEAIDSFLKQETSFPYEIIIVDDASTDHSVHIIKTYQKQYPDLIRAFFNQENQGITKTWSDICKKARGQYIARCDGDDYWIDPFKLQKQIDLLETSPESKWSNTDFDMVDSKGNIIHKDVLKNNIIPFMDSYEKMLALKGMTMASTWLVETKLMLEINDRINKDAVDDTFNIQLELFKKTKLAFLRDSTTVYRMDAESDSRSKDSEKLAQRFDRLLETQLEYIEKYPDSDYKKVLEYLLPKHNDFEKVLAQDGKNVWDNQQITIYLAKGDDQEFSEENCFQFPLQHSGNIQLTFPENIRKIRIDLSEIPSYYRQVSLVNTTVNTELLPTWTNAKVFGYSYYFIAPDPQMIYDLTAQEGQDFKLTYEWFNVDRPSQPDFLANHLVKELDQKKVELKMLSPYKYQYQKAVAERDLYLEQLNEMVVRYNSVTHSRRWTIPTKIINLFRRKK”, “failed”.
In the case of “MVKVTYDIPTCEDYCALRINAGMSPKTREAAEKGLPNALFTVTLYDKDRLIGMGRVIGDGGTVFQIVDIAVSKSYQGQDYGSLIMEHIMKYIKNVSVESAYVSLIADYPADKLYAKFGFMPTEPDSGGMYIKY” it was “not failed”; in that of “MVLDVFIEVSLVIFVAFLISLVMRMLKQPLIIGYILTGILVSPYFLNIVRFEESISTLGHYGVTILLFMVGISLNPGYFKEIGKISVITGLGQIVFTFSIGFLISIFLGYSYIESMYISIALTFSSTIIIMKLISDKGDIDKLYGKISIGFLIVQDIVAMAILILISAFNVQSGAGELLFLLLSKIVLILTAIYIFTKYALSNFISYASKNQEFLFLFSLMWCFTLASIFHLLGFSSEIGALIAGIVLAMFPERYEIASKVRPLRDFFLILFFVVLGVQMTFETSGSFLIPAIILSIFVLFGNPIIVMILMGAFGYTKKTGFLAGLTVAQISEFSLIIASLGLRNGHLSQGIVSMITLIGIITIAGSSYFITYSEKIYSLLSNYLSIFEKKTKMSEKDFKNKNTGEIILFGADRTGKNILNVIENSKERFLIIDYNPKIIKDLSKRGYNSIYGDASNLELLNELNFKESKMLISTISDIETDILLIKTILKSNKNAIIIVIAHKIEDAIKLYEEGASYVIMPHFLGSIHASLMIQKYGLNIEEFLKEKSNHMESLKKSQELFRHTK”, “failed”.
Consider “MVLEAFLVKKNEPNWLVVLRTVMPLGLSYIPIGLACGVLLHAAGFNHLLTALISVMVFSGGAQFLIASMLTINAPMTTIILMMFFLELRYALLGSSLSRYLKGQSLPFIFTFAFSMNDENYAVNYLKFATDKHWKPSQALMVEHYSLLFWTVSNIIGSLIGSALTINLQVVDFALTALFIYMAIMQTKSRLIILVAVLCGVLTIGFLVLMKSTLGLVVSTLLASLTGYFIERYLLAHKPESHLLYKVHDPTGQTAMEESDK”, for which the protein production entry is on record as “failed”.
As to “MVLETVSKTEPPPLLGPRISFSSDLSDGGDFICITPVMCKEDVVKGSVKVSDFEFLSSENVSPQRMLTADELFSEGKLLPFWQVKHSEKLKNITLKTNEEEEAEKRKVEVKKKDQEINNRDNRVTWFIDEDPSPRPPKCTVLWKELLRLKKQRNPSSSPVTARTVSSLSPSSSTSSSSSLEDAAKREEKEKEGKRGKKGLERTRSASMRIRPMIHVPICTPSKSSLPLPPLFPLSLKKNRVERRA”, the protein production result is “failed”.
For the sequence “MVLEVSDHQVLNDAEVAALLENFSSSYDYGENESDSCCTSPPCPQDFSLNFDRAFLPALYSLLFLLGLLGNGAVAAVLLSRRTALSSTDTFLLHLAVADTLLVLTLPLWAVDAAVQWVFGSGLCKVAGALFNINFYAGALLLACISFDRYLNIVHATQLYRRGPPARVTLTCLAVWGLCLLFALPDFIFLSAHHDERLNATHCQYNFPQVGRTALRVLQLVAGFLLPLLVMAYCYAHILAVLLVSRGQRRLRAMRLVVVVVVAFALCWTPYHLVVLVDILMDLGALARNCGRESRVDVAKSVTSGLGYMHCCLNPLLYAFVGVKFRERMWMLLLRLGCPNQRGLQRQPSSSRRDSSWSETSEASYSGL”, the protein production result was “not failed”.
For “MVLKAFFPTCCVSTDSGLLVGRWVPEQSSAVVLAVLHFPFIPIQVKQLLAQVRQASQVGVAVLGTWCHCRQEPEESLGRFLESLGAVFPHEPWLRLCRERGGTFWSCEATHRQAPTAPGAPGEDQVMLIFYDQRQVLLSQLHLPTVLPDRQAGATTASTGGLAAVFDTVARSEVLFRSDRFDEGPVRLSHWQSEGVEASILAELARRASGPICLLLASLLSLVSAVSACRVFKLWPLSFLGSKLSTCEQLRHRLEHLTLIFSTRKAENPAQLMRKANTVASVLLDVALGLMLLSWLHGRSRIGHLADALVPVADHVAEELQHLLQWLMGAPAGLKMNRALDQVLGRFFLYHIHLWISYIHLMSPFVEHILWHVGLSACLGLTVALSLLSDIIALLTFHIYCFYVYGARLYCLKIHGLSSLWRLFRGKKWNVLRQRVDSCSYDLDQLFIGTLLFTILLFLLPTTALYYLVFTLLRLLVVAVQGLIHLLVDLINSLPLYSLGLRLCRPYRLADKPTALQPRGAHLPPPQLWLPPQALLGRPVPQAVPWGAHLPLEAERGQAGLRELLARLAPPHGHSQPSALPGWHQLSWRMSCALWTLLCAPEHGRPCYHTLGLEVIGSEQMWGWPARLAALHHWHCLPWDPLPTCCGHHGGEHSNPRCPEHCPMPTLCTQVQRVRPPQQPQVEGWSPWGLPSGSALAVGVEGPCQDEPPSPRHPLAPSAEQHPASGGLKQSLTPVPSGPGPSLPEPHGVYLRMFPGEVAL” the value was “failed”; for “MVLLLDYWDQWAEAYRINGKSINTVYRYKLFRKHLKSRFDGRKLNSIRPIEWQKFINDFAAGKDRKEKTTRKRPRERSKDIVTKMNSYVRGMVKAAINERILFSDFTFGTKTSGVRSSGKVKVLEHHHHHH”, “failed”.
For the sequence “MVLLMAVSLSFAQMKNVKEAKSIASDVKPNFNQAEKLINEAIKNPETKDLPDTWDVAGFIQKRFIEEERDKKGVLKQPFDTLKAYNSILKMFEYYTKCDDLAQVPNEKGKIKNKYRKANASTILVERPNLINGGIQFFNLDKNKEALQFFATYVESASYPMLAEQNLAKTDTLLAQIAYYATLAADRVGDKDAIIKYAPAALDDKDGGKFAMQLMADAYKAKGDTAAWVKSLEEGILKFPGNDYFFANLVDYYTSSNQASKAMEFADRMLSTDANNKLYLYVKAYLYHNMKEYDNAIEFYKKAIAADPEYAEAYSNVGLVYLMKAQDYADKATTDINDPKYAEAQATVKKFYEEAKPFYEKARALKPDQKDLWLQGLYRVYYNLNMGPEFEEIDKMMK”, the protein production entry is reported as “failed”.
With “MVLSKTASKSDDSIHSTFASRYVRNSISRFEIPKNSIPKEAAYQIINDELKFDGNPRLNLASFVTTWMEPECDKLMMESINKNNVEMDQYPVTTDLQNRCVNMIARLFNAPLGDGEAAIGVGTVGSSEAVMLAGLAFKRQWQNKRKALGLPYDRPNIVTGANIQVCLEKFARYFEVELKEVKLREGYYVMDPDKAVEMVDENTICVVAILGSTLTGEFEDVKLLNDLLVEKNKKTGWDTPIHVDAASGGFIAPFLYPDLEWDFRLPLVKSINVSGHKYGLVYAGIGWVVWRTKTDLPDELIFHINYLGADQPTFTLNFSKGSSQVIAQYYQLIRLGFEGYRNVMDNCRENMMVLRQGLEKTGRFNIVSKENGVPLVAFSLKDSSRHNEFEVAEMLRRFGWIVPAYTMPADAQHVTVLRVVIREDFSRTLAERLVADFEKVLHELDTLPARVHAKMASGKVNGVKKTPEETQREVTAYWKKFVDTKTDKNGVPLVASITNQ”, the protein production entry was “failed”.
Turning to “MVLTKKYDKLGHILLNVFIVFCTFEVFIKGVLTLQQESSSGVNAIKIGILLFMIFAIVLKGKIKGMTTKIKGIMFIYLVFFIVLGLKILSINQMSDITGWLSDNNNLNYIFSFVCFIIILNIDIKRESVINTLIVSSTVVMVISFIFFIKNNYYGLAAPDIIQAYSMGFLNKTRMLSIFASPNHAGLYFVMVYLIVDFRGQKNLAMLFKLYKFLLIVCIMLTLSRTAIGILLLYIIIKIIRSKNAKSVVRFGIISLMVVLIGITLWIAISKYNVYFFSASYIKADNRWIKWQVAIEYIKKYWAIGAPFNIKVQMYAYVNSAITSVEFSDNLFLEIASRFGVPLIACIFIFMIKNLRRAFNEKKITDITKILVFIISSITTGSIHFTIPMILFIVYCDKFD”, the protein production result is “failed”.
As for “MVLVLDFGSQYTRLIARRLRELRAFSLILPGDAPLEEVLKHRPQALILSGGPRSVFDPDAPRPDPRLFSSGLPLLGICYGMQLLAQELGGRVERAGRAEYGKALLTRHEGPLFRGLEGEVQVWMSHQDAVTAPPPGWRVVAETEENPVAAIASPDGRAYGVQFHPEVAHTPKGMQILENFLELAGVKRDWTPEHVLEELLREVRERAGKDRVLLAVSGGVDSSTLALLLAKAGVDHLAVFVDHGLLRLGEREEVEGALRALGVNLLVVDAKERFLKALKGVEDPEEKRKIIGREFVAAFSQVARERGPFRFLAQGTLYPDVIESAGGHGAAKIKSHHNVGGLPEDLEFELLEPFRLLFKDEVRELALLLGLPDTLRLRHPFPGPGLAVRVLGEVTEERLEILRRADDIFTSLLREWGLYEKVAQALAVLTPVRSVGVAGDERKYGYVLALRAVTTEDFMTADWARLPLEFLDEAARRITRRVPEIGRVVYDLTSKPPATIEWE”, the protein production result is recorded as “not failed”.
As for “MVLYFLSSIIIAPIKTGDKAPQVDECCLKTVSDLTFFTNNEKYIWPVPDFCVRMELLAFEAIPQLSKKIIEDIPGAYQGCPRMCKVKFKKNHLKGFTLDTIYAELGTTHVIDCIVTPRIEEQELMKTIMEEEDDDDVADVVVESWLKRHKEGRLIMFDELYQQDIQTLKITSSR”, the protein production result is reported as “failed”.
Consider “MVNDIKKTALAVVTALITAVSAQLSFKIGPVPYTMQNFGVMLSGFLLGPYYGLLSMAIYLALIAFSLPIAAGGGGLGVLIGPTAGFLYGFLISSFLAGVFRRAIWREGSRREVLMLWLSTLVASMPIYLLGFFVFYNFAMIDEKLLIRSESAVRAFNLSFSSPTMVIFAATVLIFLPQDFFVDHLLAVLVFRYVHRMLNERGVEVD”, for which the protein production entry is given as “failed”.
Consider “MVNEYKAHSSFILKVVITLIGYWIASILAIIIYSMFFKIETNTFLLCLLLPTPIIWFNILIGMGLTYRCMENLTIYDKHKLWCVFVRDLTLTILATILATLTTMELYQIEHPLKPIEFVFIVGLVLIVGFTIITTLIIKYLKIIKNLKKISKN”, for which the protein production result is on record as “failed”.
For “MVNFDCVIEELDEKTKEMLRVIDEDADSFAARAEMYYKKRPELIAMVEEFYRSHRSLAERYDLLRPSSVHKHGSDSESHEKSSTCDESSWSEACETHEEYAESEIDNGESKWVDESEIDGIVEEIEPSEVVYSEGNGNSEMMKIEIERLREENKVYSEMVREKDEEKREAIRQMSVAIQMLKEENSELKKRVTNTVVARRNKEGGDSQRKQQMWKPFEFKKIKLEGLWGKGFGNWALPNTDSTSKELMTL”, the protein production result is on record as “failed”.
